T1: SauCas9 (Staphylococcus aureus, UniProt J7RUA5 1-1053)
T1 sequence: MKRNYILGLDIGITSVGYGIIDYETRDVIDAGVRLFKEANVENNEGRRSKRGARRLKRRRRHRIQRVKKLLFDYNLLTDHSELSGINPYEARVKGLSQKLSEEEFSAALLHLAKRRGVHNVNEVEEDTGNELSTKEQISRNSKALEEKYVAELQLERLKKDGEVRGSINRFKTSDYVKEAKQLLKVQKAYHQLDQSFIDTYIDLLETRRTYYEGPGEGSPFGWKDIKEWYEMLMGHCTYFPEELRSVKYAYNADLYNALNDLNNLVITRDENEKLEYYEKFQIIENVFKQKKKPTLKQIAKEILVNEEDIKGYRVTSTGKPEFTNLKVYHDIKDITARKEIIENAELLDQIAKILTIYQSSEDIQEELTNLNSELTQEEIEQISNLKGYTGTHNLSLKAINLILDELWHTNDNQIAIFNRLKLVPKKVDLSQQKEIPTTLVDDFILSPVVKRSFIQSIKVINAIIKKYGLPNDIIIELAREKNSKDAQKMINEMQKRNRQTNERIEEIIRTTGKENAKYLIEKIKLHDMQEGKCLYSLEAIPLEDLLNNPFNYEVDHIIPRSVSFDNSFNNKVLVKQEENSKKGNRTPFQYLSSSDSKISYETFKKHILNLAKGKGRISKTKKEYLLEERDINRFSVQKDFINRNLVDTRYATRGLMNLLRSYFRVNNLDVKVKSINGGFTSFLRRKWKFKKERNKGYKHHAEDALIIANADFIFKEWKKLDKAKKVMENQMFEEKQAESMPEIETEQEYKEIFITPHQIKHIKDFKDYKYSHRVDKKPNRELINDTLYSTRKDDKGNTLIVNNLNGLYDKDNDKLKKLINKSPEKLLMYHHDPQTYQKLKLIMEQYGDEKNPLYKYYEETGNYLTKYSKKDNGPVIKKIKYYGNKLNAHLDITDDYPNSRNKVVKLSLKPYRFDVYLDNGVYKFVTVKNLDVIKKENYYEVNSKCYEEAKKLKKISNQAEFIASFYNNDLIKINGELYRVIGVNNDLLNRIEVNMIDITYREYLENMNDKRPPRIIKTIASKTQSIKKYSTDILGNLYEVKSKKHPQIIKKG

B1: S. pyogenes sgRNA (structured_RNA)
RNA: GUGAAAGUUAAUCGAACUGUGUUUUAGAGCUAGAAAUAGCAAGUUAAAAUAAGGCUAGUCCGUUAUCAACUUGAAAAAGUGGCACCGAGUCGGUGCUUUU
B2: S. aureus sgRNA (structured_RNA)
RNA: GUGAAAGUUAAUCGAACUGUGUUUUAGUACUCUGGAAACAGAAUCUACUAAAACAAGGCAAAAUGCCGUGUUUAUCUCGUCAACUUGUUGGCGAGAU

How the values were obtained:
[1] = target: SpyCas9 (Streptococcus pyogenes, UniProt Q99ZW2 1-1368); experiment: EMSA; 10 mM Mg2+; EMSA: 1x NEBuffer 3.1 (100 mM NaCl, 50 mM Tris-HCl, 10 mM MgCl2, 100 ug/ml BSA, pH 7.9 at 25 C), 50 pM sgRNA, 40 min at 22 C, 6% native TBE gel in cold room; conditions: protein: recombinant; label: 5'-32P; single guide RNA, GAAA tetraloop, three 3' stem-loops
[2] = target: T1, SauCas9; experiment: as above; conditions: protein: recombinant; label: 5'-32P; single guide RNA, GAAA tetraloop, two 3' stem-loops

SpyCas9, sequence (Q99ZW2 whole entry): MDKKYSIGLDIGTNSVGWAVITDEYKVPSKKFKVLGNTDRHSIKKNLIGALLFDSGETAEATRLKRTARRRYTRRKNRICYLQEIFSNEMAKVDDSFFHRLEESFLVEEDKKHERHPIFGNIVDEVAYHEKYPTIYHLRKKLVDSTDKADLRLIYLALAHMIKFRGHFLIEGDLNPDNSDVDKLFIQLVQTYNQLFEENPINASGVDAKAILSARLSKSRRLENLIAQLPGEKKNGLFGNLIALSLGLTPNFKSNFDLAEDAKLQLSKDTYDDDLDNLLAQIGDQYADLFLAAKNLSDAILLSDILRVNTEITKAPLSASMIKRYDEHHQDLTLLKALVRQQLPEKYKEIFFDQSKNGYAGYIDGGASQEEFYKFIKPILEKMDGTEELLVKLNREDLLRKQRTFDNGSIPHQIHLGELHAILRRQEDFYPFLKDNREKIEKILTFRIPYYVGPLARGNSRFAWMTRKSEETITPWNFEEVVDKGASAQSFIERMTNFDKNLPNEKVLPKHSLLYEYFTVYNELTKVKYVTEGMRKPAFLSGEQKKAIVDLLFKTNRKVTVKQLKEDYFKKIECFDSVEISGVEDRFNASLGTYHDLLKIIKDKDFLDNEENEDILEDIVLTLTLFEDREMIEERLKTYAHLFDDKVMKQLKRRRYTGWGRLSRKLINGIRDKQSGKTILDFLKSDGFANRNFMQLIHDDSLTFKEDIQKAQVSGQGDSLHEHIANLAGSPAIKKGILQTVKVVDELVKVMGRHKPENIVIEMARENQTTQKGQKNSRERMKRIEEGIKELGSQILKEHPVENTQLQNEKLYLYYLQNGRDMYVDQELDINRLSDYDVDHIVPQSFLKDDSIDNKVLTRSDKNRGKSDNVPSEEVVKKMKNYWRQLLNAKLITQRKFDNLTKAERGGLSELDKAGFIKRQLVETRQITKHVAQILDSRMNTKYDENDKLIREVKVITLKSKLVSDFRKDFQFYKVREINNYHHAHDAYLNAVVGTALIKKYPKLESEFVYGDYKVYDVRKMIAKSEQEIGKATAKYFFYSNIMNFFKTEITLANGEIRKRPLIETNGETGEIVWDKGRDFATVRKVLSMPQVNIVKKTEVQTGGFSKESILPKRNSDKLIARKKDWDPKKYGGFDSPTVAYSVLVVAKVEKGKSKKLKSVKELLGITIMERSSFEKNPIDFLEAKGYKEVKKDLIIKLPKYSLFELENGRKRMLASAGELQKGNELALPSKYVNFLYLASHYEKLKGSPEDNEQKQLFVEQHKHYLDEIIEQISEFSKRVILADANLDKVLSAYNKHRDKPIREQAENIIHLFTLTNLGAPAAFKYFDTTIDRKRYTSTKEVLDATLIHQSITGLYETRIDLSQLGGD

Binder	Kd [1] [nM]	Kd [2] [nM]
B1	0.29 ± 0.08	–
B2	–	3.4

From paper PMC6298560, “Staphylococcus aureus Cas9 is a multiple-turnover enzyme”
